Reference: patent US20100233154A1, “TARGETED BINDING AGENTS DIRECTED TO HEPARANASE AND USES THEREOF 463” (MedImmune Limited, priority 2008, published 2010)

How the values were obtained:
[1] = molecular target: T1, recombinant heparanase captured with rabbit anti-heparanase antibody (Homo sapiens, UniProt Q9Y251); experiment: ELISA binding to antibody-captured heparanase; details: antibody capture
T1 construct: Heparanase 8 and 50 kDa sub-units were cloned into pacGP67 as Sma 1-EcoR1 fragments; made in house; host or cells: Hi5 insect cells, baculovirus (pFastBac Dual)
T1 sequence (Q9Y251 158-543 limits assumed): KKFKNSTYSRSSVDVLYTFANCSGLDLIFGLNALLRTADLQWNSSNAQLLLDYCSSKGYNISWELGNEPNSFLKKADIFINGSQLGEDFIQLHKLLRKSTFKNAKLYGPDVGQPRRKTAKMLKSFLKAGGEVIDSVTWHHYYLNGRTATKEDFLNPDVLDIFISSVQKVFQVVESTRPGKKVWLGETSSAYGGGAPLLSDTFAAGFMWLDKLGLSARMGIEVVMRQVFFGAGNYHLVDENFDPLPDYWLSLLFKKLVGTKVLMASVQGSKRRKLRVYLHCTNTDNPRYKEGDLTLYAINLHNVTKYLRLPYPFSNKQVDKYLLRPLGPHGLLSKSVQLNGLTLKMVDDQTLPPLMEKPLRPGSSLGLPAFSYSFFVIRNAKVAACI
T1 sequence (Q9Y251 36-109 limits assumed): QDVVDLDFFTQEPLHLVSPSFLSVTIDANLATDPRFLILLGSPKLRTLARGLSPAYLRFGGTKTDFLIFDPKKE
Experimental: Titres of antibodies from Campaigns 1 and 2 were determined in an ELISA. Costar 3368 medium binding plates were coated directly with recombinant human heparanase or plates were coated with Rabbit anti-heparanase antibody (Raybiotech, Cat. IP-14-155) to capture recombinant heparanase. Directly coated heparanase was detected in three separate plates by mouse (InSight Cat. INS-26-1-0000), goat (Santa Cruz, Cat. sc26136) or rabbit (Raybiotech, Cat. IP-14-155) anti-heparanase antibodies, and quantified using appropriate secondary antibodies. Antibody captured heparanase was detected using mouse anti-heparanase (Insight Cat. INS-26-1-0000). At the end of the immunisation program, fusions were performed using mouse myeloma cells and lymphocytes isolated from the spleens and lymph nodes of the immunised mice by means of electroporation, as described in Example 2.
Initial screening to detect antibodies binding to human heparanase in both direct coating and antibody capture ELISAs as described above identified 800 hybridomas for further testing; 535 IgG2 from Campaign 1 and 2 and 265 IgG4 from Campaign 2. Enzyme inhibition assays and cross species binding to cynomolgus and murine heparanase, in an antibody capture ELISA, identifed 12 antibodies that were taken forward for sub-cloning to provide purified antibodies for further analysis. Subsequently, confirmation of activity against human heparanase (FIGS. 3 and 4) and inhibition of recombinant cynomolgus and murine heparanase activity in the HS-cryptate degradation assay (FIG. 5a-c), together with sequence analysis, identified 8 antibodies that are described in the table below.

[2] = molecular target: T2, murine heparanase (Mus musculus, UniProt Q6YGZ1); experiment: Cross species capture ELISA, murine heparanase; type: binding; details: min 0.06, max 0.9 OD units
T2 construct: made in house; host or cells: Hek293 cells (conditioned medium), inferred for the ELISA
T2 sequence (Q6YGZ1 28-535): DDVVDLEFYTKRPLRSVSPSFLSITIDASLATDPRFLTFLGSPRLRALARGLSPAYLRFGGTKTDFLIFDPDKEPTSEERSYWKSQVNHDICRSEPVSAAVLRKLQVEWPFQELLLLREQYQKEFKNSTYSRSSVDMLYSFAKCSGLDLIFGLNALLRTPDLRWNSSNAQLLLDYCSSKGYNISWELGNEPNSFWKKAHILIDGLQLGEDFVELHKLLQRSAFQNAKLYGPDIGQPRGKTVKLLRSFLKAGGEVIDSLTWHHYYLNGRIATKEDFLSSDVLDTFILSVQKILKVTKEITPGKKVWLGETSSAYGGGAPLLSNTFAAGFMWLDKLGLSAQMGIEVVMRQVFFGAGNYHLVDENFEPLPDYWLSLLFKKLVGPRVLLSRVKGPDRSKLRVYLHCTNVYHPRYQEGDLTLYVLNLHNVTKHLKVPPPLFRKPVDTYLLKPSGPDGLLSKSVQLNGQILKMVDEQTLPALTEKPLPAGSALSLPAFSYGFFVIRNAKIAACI
Experimental: Initially, cross species binding to human, murine and cynomolgus heparanase was determined in an ELISA assay in which heparanase was captured onto plates using a rabbit anti-heparanase antibody (Raybiotech, Cat. IP-14-155). Exhaustive supernatants were added to the plates at a final dilution of 1:5 and bound antibody detected with a rabbit anti-human IgG Fc.

[3] = molecular target: T3, Recombinant Hpa1 (Homo sapiens, UniProt Q9Y251); experiment: Medium resolution Biacore affinity; type: binding; details: purified antibody captured on CM4 chip; Hpa1 1 nM and 10 nM; 25° C.
T3 construct: Heparanase 8 and 50 kDa sub-units were cloned into pacGP67 as Sma 1-EcoR1 fragments; made in house; host or cells: Hi5 insect cells, baculovirus (pFastBac Dual)
T3 sequence (Q9Y251 158-543 limits assumed): T1 sequence (Q9Y251 158-543 limits assumed)
T3 sequence (Q9Y251 36-109 limits assumed): T1 sequence (Q9Y251 36-109 limits assumed)
Experimental: For medium resolution Biacore™ tests, cloned and purified antibodies were used. Each of three purified antibodies (10E9.1, 15A1.2, and 15A11.1) were captured onto a high-density goat anti-human antibody surface over a CM4 Biacore™ chip. Recombinant Hpa1 was diluted to the desired concentration (1 nM and 10 nM) in 10 mM HEPES, 150 mM NaCl, 0.005% tween-20, 0.1 mg per ml BSA pH7.4 (25° C.) immediately prior to injection. Data were fit globally to a 1:1 interaction model with a term for mass transport included. The resulting KD values are summarised below in Table 4.

[4] = system: HCT116 xenograft; experiment: Subcutaneous xenograft tumour growth, HCT116; type: in vivo, SCID mice; details: once weekly i.p.; 10E9.1 at 15 mg per kg
Experimental: MCF7-Hpa1#19 and HCT116 tumour cells were harvested from sub-confluent cultures. A total of 5×10^6 (MCF7-Hpa1#19) or 10^7 (HCT116) tumour cells were inoculated subcutaneously into the flank of male SCID mice. HCT116 tumour cells were implanted in PBS; […] cells were implanted in PBS containing 50% matrigel.
When tumours had attained ˜200 mm^3, tumour bearing mice were randomised into treatment groups and dosed with the following; PBS; an isotype matched control IgG2 antibody, 15 mg per kg; anti-heparanase antibody 10E9.1, 7.5 or 15 mg per kg. All treatments were administered once weekly i.p. Tumour growth was measured twice per week using calipers and tumour volumes calculated according to an ellipsoid volume is formula (3.142/6×length×width×width) from measures of the largest tumour diameter and two opposing widths (FIG. 11).

B1: 10E9.1: fully human anti-heparanase monoclonal antibody, G2κ; VH SEQ ID NO 2, VL SEQ ID NO 4; ATCC PTA-9489 (antibody, listed as Homo Sapiens, V domains shown)
VH: QVQLVQSGAEVKKPGASVKVSCKVSGYSLTELSIHWVRQAPGKGLEWMGGFDPEDGEIIFAQKFQGRVTLTEDISLDTAYMEVSSLRSEDTAVYYCATEGHDSGDYVGYYYYGLDVWGQGTTVTVSS
VL: DIQMTQSPSSLSASVGDRVTITCRASQDIRNFLAWYQQKPGKLPKLLIYAASTLQSGVPSRFSGSGSGTDFTLTISSLQPEDVASYYCQSHNSVPFTFGPGTKVDIR
notes: fully human anti-heparanase monoclonal antibody, G2κ; ATCC PTA-9489
For B1, the “Binding to captured heparanase” value [1] was 0.87 OD units, the “Binding to heparanase Mouse” value [2] was 0.49 OD units and the ka [3] was 2.06e+06 M⁻¹ s⁻¹. The kd [3] was 0.000112 s⁻¹ and the Tumour growth inhibition [4] was “not inhibited”.
